Reference: publication PMC6611850

How the values were obtained:
[1] = target: T. thermophilus Csm2 (T. thermophilus); assay: cryo-EM structure; TthCsm bound to a 50-nt complementary target RNA, with noncomplementary ssDNA and 1 mM EDTA; 3.8 Å
[2] = target: T. thermophilus Csm3 (T. thermophilus); assay: as above

T. thermophilus Csm2 (natural protein)
stoichiometry N [1]: 4

T. thermophilus Csm3 (natural protein)
stoichiometry N [2]: 6
